Results on one substance are retold here after patent publication US7098031.

In this data set the test system is PI-SceI meganuclease. Briefly: cell_activity. The settings on record: mouse eggs, purified protein co-injected, DNA/protein 1:25; 3 of 10 embryos; indirect evidence of cleavage.

On to PI-SceI sites in PIFFLago, for which the activity (% transgenic embryos) worked out at 30.
